Assay results from patent US20240018188A1.
[ ]: non-standard residue; d: D form. dNle = CCCC[C@@H](N)C(=O)O

Target: human RAD51 (human) (UniProt Q06609)
Experiment: cell-based or functional assay

Chain of human RAD51 (human) (Q06609 2-339 limits assumed): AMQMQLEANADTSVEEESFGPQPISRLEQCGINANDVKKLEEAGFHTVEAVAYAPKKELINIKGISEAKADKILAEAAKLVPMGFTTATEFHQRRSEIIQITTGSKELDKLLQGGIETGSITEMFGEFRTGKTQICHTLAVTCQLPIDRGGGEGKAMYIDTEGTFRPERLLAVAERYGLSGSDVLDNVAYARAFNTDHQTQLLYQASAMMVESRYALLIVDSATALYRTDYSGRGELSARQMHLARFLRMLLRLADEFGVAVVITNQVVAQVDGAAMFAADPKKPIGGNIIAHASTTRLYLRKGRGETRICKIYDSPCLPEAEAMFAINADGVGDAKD

B1: Compound 11 (peptide)
peptide: Ac-[dL][dNle][dR]G[dV][dR][dL][dR][dV]G[dL][dR][dK][dR][dR][dR][dR]G[dY]-NH2
SMILES: CCCC[C@@H](NC(=O)[C@@H](CC(C)C)NC(C)=O)C(=O)N[C@H](CCCNC(=N)N)C(=O)NCC(=O)N[C@@H](C(=O)N[C@H](CCCNC(=N)N)C(=O)N[C@H](CC(C)C)C(=O)N[C@H](CCCNC(=N)N)C(=O)N[C@@H](C(=O)NCC(=O)N[C@H](CC(C)C)C(=O)N[C@H](CCCNC(=N)N)C(=O)N[C@H](CCCCN)C(=O)N[C@H](CCCNC(=N)N)C(=O)N[C@H](CCCNC(=N)N)C(=O)N[C@H](CCCNC(=N)N)C(=O)N[C@H](CCCNC(=N)N)C(=O)NCC(=O)N[C@H](Cc1ccc(O)cc1)C(N)=O)C(C)C)C(C)C
- IC50: 9 µM
